Test results reported in IntAct's records for PubMed 23403928.

B1: Mitochondrial import inner membrane translocase subunit TIM23 (Saccharomyces cerevisiae), P32897 (parent)
chain: MSWLFGDKTPTDDANAAVGGQDTTKPKELSLKQSLGFEPNINNIISGPGGMHVDTARLHPLAGLDKGVEYLDLEEEQLSSLEGSQGLIPSRGWTDDLCYGTGAVYLLGLGIGGFSGMMQGLQNIPPNSPGKLQLNTVLNHITKRGPFLGNNAGILALSYNIINSTIDALRGKHDTAGSIGAGALTGALFKSSKGLKPMGYSSAMVAAACAVWCSVKKRLLEK
partner: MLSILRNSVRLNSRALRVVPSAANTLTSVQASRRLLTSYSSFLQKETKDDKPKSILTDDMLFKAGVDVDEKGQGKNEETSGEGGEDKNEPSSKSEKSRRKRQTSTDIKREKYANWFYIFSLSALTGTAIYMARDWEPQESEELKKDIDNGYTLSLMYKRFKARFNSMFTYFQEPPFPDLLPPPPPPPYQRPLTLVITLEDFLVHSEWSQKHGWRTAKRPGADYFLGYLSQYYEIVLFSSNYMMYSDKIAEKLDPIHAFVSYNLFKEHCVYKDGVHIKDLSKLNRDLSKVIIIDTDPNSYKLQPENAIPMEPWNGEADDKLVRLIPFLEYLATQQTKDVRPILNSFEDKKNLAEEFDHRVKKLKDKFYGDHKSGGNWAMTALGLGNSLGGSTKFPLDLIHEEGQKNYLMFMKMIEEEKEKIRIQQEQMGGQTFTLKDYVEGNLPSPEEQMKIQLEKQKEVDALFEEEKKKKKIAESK

Variants of: B1
Conditions: with tim50_yeast TIM50, Q02776

Variant | effect of a mutation on the interaction
MSWLFGDKTPTDDANAAVGGQDTTKPKELSLKQSLGFEPNINNIISGPGGMHVDTARLHPLAGLDKGVEAADLEEEQLSSLEGSQGLIPSRGWTDDLCYGTGAVYLLGLGIGGFSGMMQGLQNIPPNSPGKLQLNTVLNHITKRGPFLGNNAGILALSYNIINSTIDALRGKHDTAGSIGAGALTGALFKSSKGLKPMGYSSAMVAAACAVWCSVKKRLLEK [Y70A;L71A] | disrupting interaction
